{"source": "paper PMC10441670", "key": {"[1]": {"test_system": "MHV68UNGΔN-Ls (murine gammaherpesvirus 68 / mouse chimera)", "test": "fluorescence anisotropy", "conditions": "N15 of strand 1 = abasic (AP) site made from U by UNG; G opposite"}, "[2]": {"test_system": "MHV68UNG (murine gammaherpesvirus 68)", "test": "fluorescence anisotropy", "conditions": "N15 of strand 1 = abasic (AP) site made from U by UNG; G opposite"}}, "data": [{"sequence": "AGAAAAGGGGAAAGNAAAGAGGAAAGGTGAGGAGGT / ACCTCCTCACCTTTCCTCTTTGCTTTCCCCTTTTCT [AP:G dsDNA (fluorescein)]", "values": [{"measurement": "Kd", "setting": "[1]", "value": 751, "unit": "nM"}, {"measurement": "Kd", "setting": "[2]", "value": 680, "unit": "nM"}]}]}
